Laboratory results published in IntAct's records for PubMed 21821029.

Biological target: aurka_human AURKA (UniProt O14965)
Sequence (O14965 whole entry): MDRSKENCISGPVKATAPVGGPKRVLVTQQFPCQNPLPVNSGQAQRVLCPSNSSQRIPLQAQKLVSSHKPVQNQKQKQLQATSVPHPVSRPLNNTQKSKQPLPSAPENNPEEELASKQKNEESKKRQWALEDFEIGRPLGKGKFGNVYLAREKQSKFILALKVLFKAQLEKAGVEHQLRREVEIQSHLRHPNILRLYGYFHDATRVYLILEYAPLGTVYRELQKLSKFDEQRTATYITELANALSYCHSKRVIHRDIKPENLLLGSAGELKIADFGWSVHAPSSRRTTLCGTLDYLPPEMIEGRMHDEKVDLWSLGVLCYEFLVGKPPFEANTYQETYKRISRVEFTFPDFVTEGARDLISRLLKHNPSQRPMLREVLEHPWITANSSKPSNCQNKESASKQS

effect of a mutation on the interaction: disrupting interaction
Substance: Heterogeneous nuclear ribonucleoprotein K (Homo sapiens), P61978-2 S379A
